Key:
[1] = target: Human TIGIT residues 23-128 ILE68A mutant (human) (UniProt Q495A1); experiment: SPR, capture immobilization, TIGIT alanine mutants
[2] = target: Human TIGIT residues 23-128 PRO79A mutant (human) (UniProt Q495A1); experiment: SPR, capture immobilization, TIGIT alanine mutants
[3] = target: Human TIGIT residues 23-128 LEU73A/HIS76A double mutant (human) (UniProt Q495A1); experiment: SPR, capture immobilization, TIGIT alanine mutants
[4] = target: Human TIGIT residues 23-128 ASP63A mutant (human) (UniProt Q495A1); experiment: SPR, capture immobilization, TIGIT alanine mutants
[5] = target: Human TIGIT residues 23-128 HIS76A mutant (human) (UniProt Q495A1); experiment: SPR, capture immobilization, TIGIT alanine mutants
[6] = target: Human TIGIT residues 23-128 LEU73A mutant (human) (UniProt Q495A1); experiment: SPR, capture immobilization, TIGIT alanine mutants
[7] = target: Human TIGIT residues 23-128 with C-terminal HIS tag (human) (UniProt Q495A1); experiment: SPR, amine coupling, pH 7.4 against pH 6.0
Chain of Human TIGIT residues 23-128 with C-terminal HIS tag (human) (Q495A1 23-128, form in doubt): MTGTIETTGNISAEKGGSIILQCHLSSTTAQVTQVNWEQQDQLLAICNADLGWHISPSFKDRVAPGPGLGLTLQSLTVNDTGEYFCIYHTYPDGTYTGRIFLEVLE

Chain of Human TIGIT residues 23-128 ILE68A mutant (human) (Q495A1 other isoform, or with tags, fused parts or gaps mutant, form in doubt): as the sequence (Q495A1 23-128, form in doubt) above, with I46A counted along it
Chain of Human TIGIT residues 23-128 ASP63A mutant (human) (Q495A1 other isoform, or with tags, fused parts or gaps mutant, form in doubt): as the sequence (Q495A1 23-128, form in doubt) above, with D41A counted along it
Chain of Human TIGIT residues 23-128 LEU73A/HIS76A double mutant (human) (Q495A1 other isoform, or with tags, fused parts or gaps mutant, form in doubt): as the sequence (Q495A1 23-128, form in doubt) above, with L51A, H54A counted along it
Chain of Human TIGIT residues 23-128 PRO79A mutant (human) (Q495A1 other isoform, or with tags, fused parts or gaps mutant, form in doubt): as the sequence (Q495A1 23-128, form in doubt) above, with P57A counted along it
Chain of Human TIGIT residues 23-128 LEU73A mutant (human) (Q495A1 other isoform, or with tags, fused parts or gaps mutant, form in doubt): as the sequence (Q495A1 23-128, form in doubt) above, with L51A counted along it
Chain of Human TIGIT residues 23-128 HIS76A mutant (human) (Q495A1 other isoform, or with tags, fused parts or gaps mutant, form in doubt): as the sequence (Q495A1 23-128, form in doubt) above, with H54A counted along it

- fold decrease in binding affinity against WT TIGIT [1]: 30 fold
- fold reduction of binding against wild-type TIGIT [1]: > 10 fold
- fold lower binding affinity against WT TIGIT [2]: 3 fold
- fold reduction of binding against wild-type TIGIT [3]: > 10 fold
- fold decrease in binding affinity against WT TIGIT [4]: 7 fold
- fold reduction of binding against wild-type TIGIT [5]: > 10 fold
- fold reduction in binding affinity against WT TIGIT [6]: 7 fold
- fold increase of binding affinity (KD) from pH 7.4 to pH 6.0 [7]: 17 fold
Substance: A1217 (Ociperlimab) (antibody)

— patent EP4554620A1
